T1: SIP1 full length in cells (Mus musculus) (UniProt Q9R0G7)
T1 sequence: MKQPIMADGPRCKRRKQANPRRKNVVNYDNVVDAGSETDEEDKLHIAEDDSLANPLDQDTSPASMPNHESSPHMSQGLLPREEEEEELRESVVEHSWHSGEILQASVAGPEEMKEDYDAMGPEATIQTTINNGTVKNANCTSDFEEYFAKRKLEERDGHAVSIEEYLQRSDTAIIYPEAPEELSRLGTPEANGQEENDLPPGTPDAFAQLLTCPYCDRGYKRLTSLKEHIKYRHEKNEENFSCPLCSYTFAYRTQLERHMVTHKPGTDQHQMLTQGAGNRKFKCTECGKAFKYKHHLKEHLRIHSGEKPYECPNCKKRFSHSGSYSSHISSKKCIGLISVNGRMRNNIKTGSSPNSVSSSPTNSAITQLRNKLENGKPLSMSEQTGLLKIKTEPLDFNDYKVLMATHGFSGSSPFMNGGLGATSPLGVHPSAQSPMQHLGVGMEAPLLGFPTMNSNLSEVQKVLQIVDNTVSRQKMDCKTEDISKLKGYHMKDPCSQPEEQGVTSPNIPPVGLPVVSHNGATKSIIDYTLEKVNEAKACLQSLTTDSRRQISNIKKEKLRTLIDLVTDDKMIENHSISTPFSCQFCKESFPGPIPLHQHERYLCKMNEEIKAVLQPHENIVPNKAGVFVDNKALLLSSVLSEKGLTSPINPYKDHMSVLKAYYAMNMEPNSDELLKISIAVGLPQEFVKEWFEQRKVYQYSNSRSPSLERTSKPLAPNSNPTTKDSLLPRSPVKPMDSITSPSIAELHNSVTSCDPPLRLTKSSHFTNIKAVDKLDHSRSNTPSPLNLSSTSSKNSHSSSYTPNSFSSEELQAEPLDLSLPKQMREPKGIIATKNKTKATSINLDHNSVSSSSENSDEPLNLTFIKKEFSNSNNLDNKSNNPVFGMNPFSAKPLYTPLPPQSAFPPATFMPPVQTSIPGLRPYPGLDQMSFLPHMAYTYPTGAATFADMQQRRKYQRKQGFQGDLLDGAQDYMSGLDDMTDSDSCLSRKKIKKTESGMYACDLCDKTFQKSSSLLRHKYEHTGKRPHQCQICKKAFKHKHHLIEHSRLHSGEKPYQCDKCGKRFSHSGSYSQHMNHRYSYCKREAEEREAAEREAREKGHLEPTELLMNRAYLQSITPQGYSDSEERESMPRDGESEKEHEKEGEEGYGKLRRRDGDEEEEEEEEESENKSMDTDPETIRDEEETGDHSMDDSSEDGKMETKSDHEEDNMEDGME

T2: SIP1 full length (SIP1FS) (Mus musculus, UniProt Q9R0G7 Q9R0G7:1-1215)
T2 sequence: T1 sequence

B1: Xbra-WT (dsDNA)
DNA 1: ATCCAGGCCACCTAAAATATAGAATGATAAAGTGACCAGGTGTCAGTTCT
DNA 2: AGAACTGACACCTGGTCACTTTATCATTCTATATTTTAGGTGGCCTGGAT

Assays:
[1] = molecular target: T1, SIP1 full length in cells (Mus musculus); assay: cell_activity; details: luciferase reporter in NMe, MDCK, MCF7/AZ
[2] = molecular target: T2, SIP1 full length (SIP1FS); assay: EMSA; affinity relative to SIP1CZF, estimated from expression levels; details: tags: N-terminal Myc6 (pCS3), COS1 cell extract; label: 32P
Method: The Xbra-WT oligonucleotide covers the region from −344 to −294 of the Xbra2 promoter (16). The region between −412 to −352 of the α4-integrin promoter is present within the α4I-WT oligonucleotide (26). The Ecad-WT probe contains the region between −86 to −17 of the human Ecad promoter (2). Double-stranded oligonucleotides were labeled with [³²P]-γ-ATP and T4 polynucleotide kinase (New England Biolabs). Total cell extracts were prepared from COS1 cells (25) transfected with different pCS3 vectors allowing synthesis of full length SIP1, full length δEF1, and different mutant forms of SIP1 (25), or co-production of equal amounts of Myc-tagged SP1 and FLAG-tagged SIP1. GST-SIP1 fusion proteins were purified from E. coli extract using the GST purification module (Pharmacia), and tested in gel retardation. The DNA binding assay (20 μl) was performed at 25° C., with 1 μg of COS1 total cell protein, 1 μg of poly dI-dC, 10 pg of ³²P-labeled double-stranded oligonucleotide (approx. 10⁴ Cerenkov counts) in the δEF1 binding buffer described previously (30). For supershift experiments, the extracts were incubated with anti-Myc (Santa Cruz) or anti-FLAG (Kodak) antibodies. For competition, an excess of unlabeled double-stranded oligonucleotides was added together with the labeled probe. […]

Molecule | activity (% decrease of promoter activity) [1] | binding signal [2] [fold]
E-cadherin promoter reporter | 80 | –
B1 | – | ≥ 50
